In US9347942B2, “Ultrasensitive cell based sensors and uses thereof” (CANVAX BIOTECH SL, priority 2010, dated 2016):
FAM = fluorophore of the FRET substrate

Assays:
[1] = biological target: T1, human granzyme B (Homo sapiens, UniProt P10144); experiment: Direct detection of secreted granzyme B with peptide substrates (Example 10); assay type: biochemical; details: for signal to background: ionomycin 10 uM
T1 construct: expressed in transfected cells; host or cells: supernatant of RBL-2H3 stably transfected with human granzyme B, treated with ionomycin
T1 sequence (P10144 21-247): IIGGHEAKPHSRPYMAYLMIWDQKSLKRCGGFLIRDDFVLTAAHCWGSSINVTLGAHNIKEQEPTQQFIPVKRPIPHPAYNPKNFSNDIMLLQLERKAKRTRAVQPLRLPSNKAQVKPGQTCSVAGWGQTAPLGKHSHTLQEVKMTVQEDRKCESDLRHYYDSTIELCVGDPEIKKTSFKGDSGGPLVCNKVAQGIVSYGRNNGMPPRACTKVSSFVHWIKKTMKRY
Description: Human granzyme B was used as a model enzyme. […] Cleavage of FAM-TAMRA labelled peptide was detected by fluorescence using excitation at 485 nm and emission at 535 nm and labelled peptide at 1 uM final concentration.
For each substrate the exocytosis of 50.000, 25.000, 12.500, 6.250, 3.125, 1560, 780 and 390 cells was analysed. Cells were seeded the night before experiment at the above densities in 96 well plates using 100 uL of complete cell culture medium per well. The day of experiment cells were washed with HBSS buffer and exocytosis was initiated by addition of ionomycin at 10 uM final concentration in HBSS buffer and incubation for 60 minutes at 37 Celsius degrees. Controls of cells treated with HBSS buffer only were included for basal release determination. Five replicas of each cell density for each substrate were seeded. Supernatant from cells were centrifuged at 400 g for 5 minutes and used for fluorescence determination in 96 well plates. Released AMC was measured by excitation at 360 nm and emission at 460 nm in a BMG Labtech microplate fluorimeter in 96 well microplates while released FAM was measured by excitation at 485 nm and emission at 535 nm in the same reader. Microplates were incubated at 37 Celsius degrees on the reader and were kinetically read at 0, 15, 30, 45 and 60 minutes. Control wells with substrate only in HBSS buffer were included to subtract autofluorescence of substrates to both cells treated with ionomycin and to cells treated with HBSS buffer only. An arbitrary signal to background of about two was selected as sensitivity.

[2] = test system: RBL-2H3 cells; experiment: Ionomycin-induced release of granule stored protease reporters from stable cell lines (Example 5); assay type: cell-based, Rat; details: stable RBL-2H3, 10 uM ionomycin 1 hour, supernatant equivalent to 100.000 cells, AMC substrate
Description: As either tryptase-like enzymes, chymase-like enzymes, elastase-like enzymes or asp-ase like enzymes are useful for the methods of the present invention we selected human granzyme A (tryptase-like enzyme); human granzyme B (Asp-ase-like enzyme); human chymase (chymase-like enzyme) and human proteinase 3 (elastase-like enzyme) for further examples. Vectors were developed for stable expression of human granzyme A, human granzyme B, human chymase and human proteinase 3 under the control of hCMV-MoMLV5′LTR chimeric promoter. A hygromycin resistance cassette was included in the vector backbone for selection of stable populations of cells. The vector also included an IRES-NGFR cassette cloned downstream of granule stored protease reporter and thus, under the control of hCMV-MoMLV5′LTR promoter for flow cytometry and/or selection by MACS of stable cells expressing either human granzyme A or human granzyme B or human chymase or human proteinase 3. Each vector was individually electroporated using a microporator (Digital Bio Technology, South Korea) into RBL-2H3 and after 48 hours hygromycin at 1500 ug/mL was added to culture for selection. After selection for about 2 weeks cells were analysed by flow cytometry (Guava Technologies, USA) with an antibody against NGFR coupled to FITC. Positive population where magnetically separated by MACS using anti-NGFR-MACS sup.R (Miltenyi Biotec, Germany). Sorted populations were again analysed again by flow cytometry to check the sorting efficiency. Percentage of NGFR positive cells was always higher than 65 percent. Cells were seeded the night before experiment in 24 well microplates at 650.000 cells per well in 800 microliters of complete cell culture medium. Next day cells were washed with HBSS buffer and were treated with 10 uM ionomycin for 1 hour at 37 Celsius degrees in 200 uL of HBSS buffer and after centrifugation at 400 g for 5 minutes supernatants were analysed for activity with specific fluorescent substrates. Controls of cells incubated with HBSS buffer only were included. Fluorescent substrates were: VANR-AMC for granzyme A; PEEI-AMC for human neutrophil elastase; PTSY-AMC for human chymase; VADC-AMC for human proteinase 3 and IEPD-AMC for human granzyme B. Released AMC was measured by excitation at 360 nm and emission at 460 nm in a BMG Labtech microplate fluorimeter in 96 well microplates using 125 microliters of supernatant and 125 microliters of specific substrate at 400 micromol per liter in HBSS buffer. Microplates were incubated at 37 Celsius degrees on the reader and were kinetically read at 0, 15, 30, 45 and 60 minutes. Control wells with substrate only in HBSS buffer were included to subtract autofluorescence of substrates to both cells treated with ionomycin and to cells treated with HBSS buffer only. Autofluorescence of peptide substrates in HBSS buffer was about 3000 while fluorescence of cells treated with HBSS buffer only for 60 minutes at 37 Celsius degrees was about 5000, that is basal release in the absence of exocytosis modulator was about 2000. In contrast, fluorescence of ionomycin-induced release of human granzymes A and B was about 20.000 for a signal to background of 10 when using the supernatant equivalent to 100.000 cells; fluorescence of ionomycin-induced release of human chymase was about 30.000 for a signal to background of 15 when using the supernatant equivalent to 100.000 cells and fluorescence of ionomycin-induced release of human proteinase 3 was about 12.000 for a signal to background of 6 when using the supernatant equivalent to 100.000 cells. Thus, tryptase-like enzymes, chymase-like enzymes, elastase-like enzymes or asp-ase like enzymes can be stably expressed into granules of hemopoyetic cells with professional regulated exocytosis and such granule stored proteases are released by exocytosis modulators to produce sensors with good signal to background ratios using specific AMC-coupled peptide substrates. […]

[3] = test system: RBL-2H3 cells; experiment: Ionomycin-induced release of granzyme B from different species, stable cell lines (Example 6); assay type: cell-based, Rat; details: 100.000 cells per well, 10 uM ionomycin 1 hour, IEPD-AMC
Description: This experiment was designed to test if granule stored protease reporters from other species different from human could be used for the methods of the present invention. As an example we selected granzyme B from different species. Vectors were developed for expression of human, rat, horse and chimpanzee granzyme B and RBL-2H3 cells were individually transfected with the plasmids comprising the chimeric promoter of hCMV-MoMLV5′LTR-GranzymeB-IRES-NGFR with hygromycin resistance for stable transfections. Each vector was individually electroporated using a microporator (Digital Bio Technology, South Korea) into RBL-2H3 and after 48 hours hygromycin at 1500 ug/ml_was added to culture for selection. After selection for about 2 weeks cells were analysed by flow cytometry (Guava Technologies, USA) with an antibody against NGFR coupled to FITC. Positive population where magnetically separated by MACS using anti-NGFR-MACS sup.R (Miltenyi Biotec, Germany). Sorted populations were again analysed again by flow cytometry to check the sorting efficiency. Percentage of NGFR positive cells was always higher than 65 percent. Cells were seeded the night before experiment in 96 well microplates at 100.000 cells per well in 100 microliters of medium. Next day cells were washed with BSS buffer and were treated with 10 uM ionomycin for 1 hour at 37 Celsius degrees in 105 uL of HBSS buffer and after centrifugation at 400 g for 5 minutes supernatants were analysed for activity with specific fluorescent substrates. Controls of cells incubated with HBSS buffer only were included. Fluorescent substrate was IEPD-AMC for all granzymes B tested. Released AMC was measured by excitation at 360 nm and emission at 460 nm in a BMG Labtech microplate fluorimeter in 96 well microplates using 105 microliters of supernatant and 145 microliters of specific substrate at 345 micromol per liter in HBSS buffer. Microplates were incubated at 37 Celsius degrees on the reader and were kinetically read at 0, 15, 30, 45 and 60 minutes. Control wells with substrate only in HBSS buffer were included to subtract autofluorescence of substrates to both cells treated with ionomycin and to cells treated with HBSS buffer only.

[4] = biological target: T2, hIL8 receptor (hIL8RA) (Homo sapiens, UniProt P25024); experiment: Multiplex assay, Sensor A channel (hIL8RA and human granzyme A) (Example 14); assay type: cell-based; details: for Signal to background at 30 min: granzyme A substrate 1 uM
T2 construct: the entire human GPCR; mouse immunoglobulin kappa signal peptide (N); expressed in transfected cells
T2 sequence (P25024 3-350 limits assumed): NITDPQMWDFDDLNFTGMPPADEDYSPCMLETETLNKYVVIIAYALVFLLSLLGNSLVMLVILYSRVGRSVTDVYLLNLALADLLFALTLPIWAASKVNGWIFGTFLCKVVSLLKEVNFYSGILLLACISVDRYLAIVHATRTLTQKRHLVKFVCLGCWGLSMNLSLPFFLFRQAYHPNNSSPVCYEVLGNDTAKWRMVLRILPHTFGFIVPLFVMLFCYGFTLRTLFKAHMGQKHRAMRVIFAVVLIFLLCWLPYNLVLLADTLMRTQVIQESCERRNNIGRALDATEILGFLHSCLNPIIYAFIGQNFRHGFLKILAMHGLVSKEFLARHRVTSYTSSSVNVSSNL
Description: (§1) The principle of multiplex reactions is illustrated in FIG. 5. RBL2H3 cells were stably transfected with a pair of a GPCR as exocytosis modulator and a granzyme as a granule stored reporter as described in example 9. Combinations included were: hIL8 receptor (hIL8RA) and human granzyme A (Sensor A) and CHRM2 and granzyme B expressing cells of example #12 (Sensor B). Human IL8 was used as agonist of hll_8R while carbachol was used as CHRM2 agonist. […] As both substrates uses the same pair of fluorophore (FAM) and quencher (TAMRA) only one substrate could be added to reaction vessel for specific detection at 535 nm after excitation at 485 nm. […] Sensors, agonists and substrates were mixed in a total volume of 20 uL of HBSS in a black walled 384 well microplate and the microplate was incubated at 37 Celsius degrees in a BMG-Labtech microplate fluorimeter and read at 0, 15, 30, 45 and 60 minutes.

[5] = biological target: T3, CHRM2 (Homo sapiens, UniProt P08172); experiment: Multiplex assay, Sensor B channel (CHRM2 and granzyme B) (Example 14); assay type: cell-based; details: Condition 9: Sensor A 12500 + Sensor B 5000 cells, IL8 10 uM, no carbachol, granzyme B substrate 1 uM
T3 construct: the entire human GPCR; mouse immunoglobulin kappa signal peptide (N); expressed in transfected cells
T3 sequence (P08172 2-466): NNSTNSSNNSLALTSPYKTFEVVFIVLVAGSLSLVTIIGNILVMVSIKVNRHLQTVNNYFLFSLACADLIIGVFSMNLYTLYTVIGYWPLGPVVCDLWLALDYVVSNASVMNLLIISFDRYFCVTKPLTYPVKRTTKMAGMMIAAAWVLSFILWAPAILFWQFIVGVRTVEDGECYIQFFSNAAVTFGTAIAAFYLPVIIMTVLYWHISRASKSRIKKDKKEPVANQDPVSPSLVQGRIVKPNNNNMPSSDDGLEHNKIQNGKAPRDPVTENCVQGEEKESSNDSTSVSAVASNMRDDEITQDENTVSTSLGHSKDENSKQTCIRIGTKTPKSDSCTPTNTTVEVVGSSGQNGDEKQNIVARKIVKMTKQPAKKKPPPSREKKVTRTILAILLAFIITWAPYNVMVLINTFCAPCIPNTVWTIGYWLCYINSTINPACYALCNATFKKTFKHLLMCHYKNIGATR
Description: as §1

[6] = biological target: T1, human granzyme B; experiment: Procaspase-3 zymogen activation by secreted granzyme B, DEVD-AMC readout (Example 11); assay type: biochemical
Description: As a model we selected human granzyme B. A human granzyme B activated-zymogen was developed from human native unmodified procaspase-3 (huCasp3) and from a mutated human procaspase-3 (mut-huCasp3) where the amino acids from 172 to 179 has been changed from […]to […] that is Threonine at 174 has been mutated to Proline because IEPD is a better granzyme B substrate than IETD and serine at 176 has been mutated to valine, glycine at 177 has been mutated to leucine, valine at 178 has been mutated to methionine and aspartic acid at 179 has been mutated to glutamic acid in order to both improve cleavage efficiency by human granzyme B and to reduce autoactivation of procaspase-3. cDNA from both variants of human pro-caspase-3 comprising amino acids from Serine at 29 to Aspartic acid at 192 were cloned into pET43a+ vector from Novagen. After sequencing expression vectors were transformed into BL21 DE3pLys E. coli strain for protein expression. Each protein was cloned with a polyhistidine tag at C-terminal end for purification. Human native procaspase-3 (huCasp3) was induced for only 30 minutes to prevent autoactivation, while mutated procaspase-3 (mut-huCasp3) was induced both for 30 minutes and for 2 hours. DEVD-AMC substrate was used for detection of active caspase-3 with excitation at 360 nm and emission at 460 nm. A supernatant equivalent to 15.000 RBL-2H3 stably transfected with human granzyme B treated with 10 uM ionomycin for 60 minutes was used for zymogen activation. Human granzyme B activity of such supernatant when measured with IEPD-AMC produced a signal to background of 2.6 after incubation for 60 minutes at 37 Celsius degrees using a supernatant equivalent to 25.000 cells. Background of fluorescence of DEVD-AMC substrate was 2775 and was subtracted from both granzyme B treated caspase-3 and non-granzyme B treated caspase-3 (caspase-3 only) used as control and all samples were tested by triplicate.

## FAM-Ser-Ile-Glu-Pro-Asp-Ser-Gly-Ser-TAMRA ({FAM}-SIEPDSGS-{TAMRA}) [FAM-TAMRA peptide, custom designed FRET based granzyme B substrate]
[1]; 390 cells
  signal to background: < 2
[1]; 780 cells
  signal to background: 3
[1]; sensitivity taken as 780 cells
  times more sensitive for detection of granzyme B than IEPD-AMC peptide: more than 30 times

## Human granzyme B: Asp-ase-like serine protease (GZMB, NM_004131) used as granule stored reporter
[2]
  fluorescence of ionomycin-induced release: about 20.000
  signal to background: 10
[3]
  Fluorescence of supernatant from cells treated with ionomycin: 20,000
  signal to background: 10

## IL8: Human IL8 used as agonist of hIL8R
[4]; Condition 2: 12500 cells Sensor A, IL8 10 uM
  Signal to background at 30 min: 16
[4]; Condition 5: Sensor A 12500 + Sensor B 5000 cells, IL8 10 uM + carbachol 10 uM
  Signal to background at 30 min: 12.5
[4]; first experiment, data not shown
  maximal granzyme A activity secreted by sensor A upon IL8, relative to granzyme B activity secreted by sensor B upon carbachol: about 40%
[5]
  Signal to background at 30 min: 0.95

B1: Rat granzyme B: Granzyme B of rat (NM_138517) used as granule stored reporter (protein, UniProt P18291 21-248, looked up)
Granzyme B: IIGGHEAKPHSRPYMAYLQIMDEYSGSKKCGGFLIREDFVLTAAHCSGSKINVTLGAHNIKEQEKMQQIIPVVKIIPHPAYNSKTISNDIMLLKLKSKAKRSSAVKPLNLPRRNVKVKPGDVCYVAGWGKLGPMGKYSDTLQEVELTVQEDQKCESYLKNYFDKANEICAGDPKIKRASFRGDSGGPLVCKKVAAGIVSYGQNDGSTPRAFTKVSTFLSWIKKTMKKS
[3]
  Fluorescence of supernatant from cells treated with ionomycin: 22,000
  signal to background: 11

B2: Native (unmodified) huCasp-3: human native unmodified procaspase-3 zymogen expressed in E. coli with polyhistidine tag (protein, UniProt P42574 1-277, looked up)
pro-form: MENTENSVDSKSIKNLEPKIIHGSESMDSGISLDNSYKMDYPEMGLCIIINNKNFHKSTGMTSRSGTDVDAANLRETFRNLKYEVRNKNDLTREEIVELMRDVSKEDHSKRSSFVCVLLSHGEEGIIFGTNGPVDLKKITNFFRGDRCRSLTGKPKLFIIQACRGTELDCGIETDSGVDDDMACHKIPVEADFLYAYSTAPGYYSWRNSKDGSWFIQSLCAMLKQYADKLEFMHILTRVNRKVATEFESFSFDATFHAKKQIPCIVSMLTKELYFYH
modifications: pro-form polyhistidine tag
notes: human native unmodified procaspase-3 zymogen expressed in E. coli with polyhistidine tag
[6]; 15.000 cells versus 25.000 cells
  times more sensitive than direct detection of secreted granzyme B with IEPD-AMC: about 1.7 times
[6]; no granzyme B, DEVD-AMC, background 2775 subtracted
  Fluorescence of Caspase-3 only: 15775
[6]; supernatant equivalent to 15.000 cells, DEVD-AMC
  signal to background (S/B): 2.8
[6]; supernatant equivalent to 15.000 ionomycin treated cells, DEVD-AMC, background 2775 subtracted
  Fluorescence of caspase-3 treated with granzyme B: 43548
